Data set [1] deals with the molecule itself. As to the kind of experiment: native-gel electrophoresis, self-association in aqueous solution.
For data set [2], the target named is toll-like receptor-5 (hTLR5) expressed in 293T cells from p3xFlag-hTLR5 plasmid (human (printed only as hTLR5), UniProt O60602 21-858). Description: cell-based or functional assay.

The values that follow come from patent US20120201854A1 (INDUSTRY FOUNDATION OF CHONNAM NATIONAL UNIVERSITY, published 2012).

Sequence of toll-like receptor-5 (hTLR5) expressed in 293T cells from p3xFlag-hTLR5 plasmid (O60602 21-858): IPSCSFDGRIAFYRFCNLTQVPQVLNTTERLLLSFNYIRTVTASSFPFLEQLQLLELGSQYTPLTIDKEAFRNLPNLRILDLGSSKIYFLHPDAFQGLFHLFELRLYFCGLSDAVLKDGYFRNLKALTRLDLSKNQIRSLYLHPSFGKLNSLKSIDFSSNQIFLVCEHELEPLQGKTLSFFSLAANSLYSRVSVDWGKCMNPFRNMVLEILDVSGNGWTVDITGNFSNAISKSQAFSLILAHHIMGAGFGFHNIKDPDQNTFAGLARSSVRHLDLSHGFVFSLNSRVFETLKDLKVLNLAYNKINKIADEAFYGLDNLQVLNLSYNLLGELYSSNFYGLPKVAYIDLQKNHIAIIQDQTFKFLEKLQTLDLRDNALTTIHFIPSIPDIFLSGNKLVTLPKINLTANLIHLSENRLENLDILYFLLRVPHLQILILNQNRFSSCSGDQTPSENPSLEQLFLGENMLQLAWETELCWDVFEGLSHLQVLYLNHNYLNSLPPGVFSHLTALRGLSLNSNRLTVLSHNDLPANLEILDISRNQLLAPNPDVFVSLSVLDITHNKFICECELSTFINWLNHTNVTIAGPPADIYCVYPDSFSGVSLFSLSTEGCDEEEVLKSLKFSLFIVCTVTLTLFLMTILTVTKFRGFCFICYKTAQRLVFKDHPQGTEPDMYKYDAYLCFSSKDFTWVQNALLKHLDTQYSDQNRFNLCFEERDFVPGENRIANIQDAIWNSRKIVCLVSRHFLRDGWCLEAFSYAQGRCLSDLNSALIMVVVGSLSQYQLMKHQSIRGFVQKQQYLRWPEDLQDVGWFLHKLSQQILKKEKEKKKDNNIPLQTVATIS

B1: flagellin mutant (N153W) of V. vulnificus flagellin FlaB (ligand)
chain: MAVNVNTNVAAMTAQRYLNNANSAQQTSMERLSSGFKINSAKDDAAGLQISNRLNVQSRGLDVAVRNANDGISIAQTAEGAMNETTNILQRMRDLSLQSANGSNSKSERVAIQEEVTALNDELNRIAETTSFGGNKLLNGTYGTKAMQIGADWGEAVMLSLKDMRSDNVMMGGVSYQAEEGKDKNWNVAAGDNDLTIALTDSFGNEQEIEINAKAGDDIEELATYINGQTDLVKASVGEGGKLQIFAGNNKVQGEIAFSGSLAGELGLGEGKNVTVDTIDVTTVQGAQESVAIVDAALKYVDSHRAELGAFQNRFNHAISNLDNINENVNASKSRIKDTDFAKETTQLTKTQILSQASSSILAQAKQAPNSALSLLG
notes: Recombinant, from pTYB12 intein fusion in E. coli ER2566
On to B1, for which the binding result in data set [1] was “binds”. Besides, the “increase in TLR5-mediated NF-κB transcription activity (luciferase reporter, 293T cells, 20 ng/ml) compared to PBS control” value (from here on “increase”) in data set [2] was approximately 24.5 fold.

B2: flagellin mutant (L97W) of V. vulnificus flagellin FlaB (ligand)
chain: MAVNVNTNVAAMTAQRYLNNANSAQQTSMERLSSGFKINSAKDDAAGLQISNRLNVQSRGLDVAVRNANDGISIAQTAEGAMNETTNILQRMRDLSWQSANGSNSKSERVAIQEEVTALNDELNRIAETTSFGGNKLLNGTYGTKAMQIGADNGEAVMLSLKDMRSDNVMMGGVSYQAEEGKDKNWNVAAGDNDLTIALTDSFGNEQEIEINAKAGDDIEELATYINGQTDLVKASVGEGGKLQIFAGNNKVQGEIAFSGSLAGELGLGEGKNVTVDTIDVTTVQGAQESVAIVDAALKYVDSHRAELGAFQNRFNHAISNLDNINENVNASKSRIKDTDFAKETTQLTKTQILSQASSSILAQAKQAPNSALSLLG
notes: as for B1
For B2, the binding result in data set [1] is reported as “binds”. In addition, the “increase” value in data set [2] was approximately 25 fold.

B3: flagellin mutant (N101A) of V. vulnificus flagellin FlaB (ligand)
chain: MAVNVNTNVAAMTAQRYLNNANSAQQTSMERLSSGFKINSAKDDAAGLQISNRLNVQSRGLDVAVRNANDGISIAQTAEGAMNETTNILQRMRDLSLQSAAGSNSKSERVAIQEEVTALNDELNRIAETTSFGGNKLLNGTYGTKAMQIGADNGEAVMLSLKDMRSDNVMMGGVSYQAEEGKDKNWNVAAGDNDLTIALTDSFGNEQEIEINAKAGDDIEELATYINGQTDLVKASVGEGGKLQIFAGNNKVQGEIAFSGSLAGELGLGEGKNVTVDTIDVTTVQGAQESVAIVDAALKYVDSHRAELGAFQNRFNHAISNLDNINENVNASKSRIKDTDFAKETTQLTKTQILSQASSSILAQAKQAPNSALSLLG
notes: as for B1
B3: in data set [1], the binding result is “binds”. In addition, the “increase” value in data set [2] is approximately 22.6 fold.

B4: flagellin mutant (S103W) of V. vulnificus flagellin FlaB (ligand)
chain: MAVNVNTNVAAMTAQRYLNNANSAQQTSMERLSSGFKINSAKDDAAGLQISNRLNVQSRGLDVAVRNANDGISIAQTAEGAMNETTNILQRMRDLSLQSANGWNSKSERVAIQEEVTALNDELNRIAETTSFGGNKLLNGTYGTKAMQIGADNGEAVMLSLKDMRSDNVMMGGVSYQAEEGKDKNWNVAAGDNDLTIALTDSFGNEQEIEINAKAGDDIEELATYINGQTDLVKASVGEGGKLQIFAGNNKVQGEIAFSGSLAGELGLGEGKNVTVDTIDVTTVQGAQESVAIVDAALKYVDSHRAELGAFQNRFNHAISNLDNINENVNASKSRIKDTDFAKETTQLTKTQILSQASSSILAQAKQAPNSALSLLG
notes: as for B1
B4: the binding result in data set [1] is “binds”. The “increase” value in data set [2] was approximately 23.7 fold.

B5: flagellin mutant (V291W) of V. vulnificus flagellin FlaB (ligand)
chain: MAVNVNTNVAAMTAQRYLNNANSAQQTSMERLSSGFKINSAKDDAAGLQISNRLNVQSRGLDVAVRNANDGISIAQTAEGAMNETTNILQRMRDLSLQSANGSNSKSERVAIQEEVTALNDELNRIAETTSFGGNKLLNGTYGTKAMQIGADNGEAVMLSLKDMRSDNVMMGGVSYQAEEGKDKNWNVAAGDNDLTIALTDSFGNEQEIEINAKAGDDIEELATYINGQTDLVKASVGEGGKLQIFAGNNKVQGEIAFSGSLAGELGLGEGKNVTVDTIDVTTVQGAQESWAIVDAALKYVDSHRAELGAFQNRFNHAISNLDNINENVNASKSRIKDTDFAKETTQLTKTQILSQASSSILAQAKQAPNSALSLLG
notes: as for B1
With B5, the binding result in data set [1] is “binds”. In addition, the “increase” value in data set [2] is approximately 16.6 fold.

B6: flagellin mutant (N135D) of V. vulnificus flagellin FlaB (ligand)
chain: MAVNVNTNVAAMTAQRYLNNANSAQQTSMERLSSGFKINSAKDDAAGLQISNRLNVQSRGLDVAVRNANDGISIAQTAEGAMNETTNILQRMRDLSLQSANGSNSKSERVAIQEEVTALNDELNRIAETTSFGGDKLLNGTYGTKAMQIGADNGEAVMLSLKDMRSDNVMMGGVSYQAEEGKDKNWNVAAGDNDLTIALTDSFGNEQEIEINAKAGDDIEELATYINGQTDLVKASVGEGGKLQIFAGNNKVQGEIAFSGSLAGELGLGEGKNVTVDTIDVTTVQGAQESVAIVDAALKYVDSHRAELGAFQNRFNHAISNLDNINENVNASKSRIKDTDFAKETTQLTKTQILSQASSSILAQAKQAPNSALSLLG
notes: as for B1
As for B6, in data set [1], the binding result is given as “binds”. Also, the “increase” value in data set [2] was approximately 21.7 fold.

B7: flagellin mutant (A151W) of V. vulnificus flagellin FlaB (ligand)
chain: MAVNVNTNVAAMTAQRYLNNANSAQQTSMERLSSGFKINSAKDDAAGLQISNRLNVQSRGLDVAVRNANDGISIAQTAEGAMNETTNILQRMRDLSLQSANGSNSKSERVAIQEEVTALNDELNRIAETTSFGGNKLLNGTYGTKAMQIGWDNGEAVMLSLKDMRSDNVMMGGVSYQAEEGKDKNWNVAAGDNDLTIALTDSFGNEQEIEINAKAGDDIEELATYINGQTDLVKASVGEGGKLQIFAGNNKVQGEIAFSGSLAGELGLGEGKNVTVDTIDVTTVQGAQESVAIVDAALKYVDSHRAELGAFQNRFNHAISNLDNINENVNASKSRIKDTDFAKETTQLTKTQILSQASSSILAQAKQAPNSALSLLG
notes: as for B1
For B7, the binding result in data set [1] is on record as “binds”. In data set [2], the “increase” value was approximately 22.5 fold.

B8: flagellin mutant (R93A) of V. vulnificus flagellin FlaB (ligand)
chain: MAVNVNTNVAAMTAQRYLNNANSAQQTSMERLSSGFKINSAKDDAAGLQISNRLNVQSRGLDVAVRNANDGISIAQTAEGAMNETTNILQRMADLSLQSANGSNSKSERVAIQEEVTALNDELNRIAETTSFGGNKLLNGTYGTKAMQIGADNGEAVMLSLKDMRSDNVMMGGVSYQAEEGKDKNWNVAAGDNDLTIALTDSFGNEQEIEINAKAGDDIEELATYINGQTDLVKASVGEGGKLQIFAGNNKVQGEIAFSGSLAGELGLGEGKNVTVDTIDVTTVQGAQESVAIVDAALKYVDSHRAELGAFQNRFNHAISNLDNINENVNASKSRIKDTDFAKETTQLTKTQILSQASSSILAQAKQAPNSALSLLG
notes: as for B1
Consider B8, for which, in data set [1], the binding result is recorded as “binds”. Also, in data set [2], the “increase” value is approximately 14 fold.

B9: flagellin mutant (E108A) of V. vulnificus flagellin FlaB (ligand)
chain: MAVNVNTNVAAMTAQRYLNNANSAQQTSMERLSSGFKINSAKDDAAGLQISNRLNVQSRGLDVAVRNANDGISIAQTAEGAMNETTNILQRMRDLSLQSANGSNSKSARVAIQEEVTALNDELNRIAETTSFGGNKLLNGTYGTKAMQIGADNGEAVMLSLKDMRSDNVMMGGVSYQAEEGKDKNWNVAAGDNDLTIALTDSFGNEQEIEINAKAGDDIEELATYINGQTDLVKASVGEGGKLQIFAGNNKVQGEIAFSGSLAGELGLGEGKNVTVDTIDVTTVQGAQESVAIVDAALKYVDSHRAELGAFQNRFNHAISNLDNINENVNASKSRIKDTDFAKETTQLTKTQILSQASSSILAQAKQAPNSALSLLG
notes: as for B1
On to B9, for which the binding result in data set [1] is listed as “binds”. Moreover, the “increase” value in data set [2] was approximately 21 fold.

B10: flagellin mutant (D70A/N135D) of V. vulnificus flagellin FlaB (ligand)
chain: MAVNVNTNVAAMTAQRYLNNANSAQQTSMERLSSGFKINSAKDDAAGLQISNRLNVQSRGLDVAVRNANAGISIAQTAEGAMNETTNILQRMRDLSLQSANGSNSKSERVAIQEEVTALNDELNRIAETTSFGGDKLLNGTYGTKAMQIGADNGEAVMLSLKDMRSDNVMMGGVSYQAEEGKDKNWNVAAGDNDLTIALTDSFGNEQEIEINAKAGDDIEELATYINGQTDLVKASVGEGGKLQIFAGNNKVQGEIAFSGSLAGELGLGEGKNVTVDTIDVTTVQGAQESVAIVDAALKYVDSHRAELGAFQNRFNHAISNLDNINENVNASKSRIKDTDFAKETTQLTKTQILSQASSSILAQAKQAPNSALSLLG
notes: Recombinant, from pTYB12 intein fusion in E. coli ER2566; also called dual site-directed mutant flagellin
As for B10, the binding result in data set [1] is “binds”. Besides, in data set [2], the “increase” value is approximately 14.9 fold.

B11: flagellin mutant (D70A) of V. vulnificus flagellin FlaB (ligand)
chain: MAVNVNTNVAAMTAQRYLNNANSAQQTSMERLSSGFKINSAKDDAAGLQISNRLNVQSRGLDVAVRNANAGISIAQTAEGAMNETTNILQRMRDLSLQSANGSNSKSERVAIQEEVTALNDELNRIAETTSFGGNKLLNGTYGTKAMQIGADNGEAVMLSLKDMRSDNVMMGGVSYQAEEGKDKNWNVAAGDNDLTIALTDSFGNEQEIEINAKAGDDIEELATYINGQTDLVKASVGEGGKLQIFAGNNKVQGEIAFSGSLAGELGLGEGKNVTVDTIDVTTVQGAQESVAIVDAALKYVDSHRAELGAFQNRFNHAISNLDNINENVNASKSRIKDTDFAKETTQLTKTQILSQASSSILAQAKQAPNSALSLLG
notes: Recombinant, expressed in E. coli ER2566 from pTYB12 as intein fusion, released with DTT
B11: the binding result in data set [1] is on record as “binds”. Further, the “increase” value in data set [2] is approximately 24.6 fold.
